Measurements as given in doi:10.1101/2024.07.31.606116.
pKd, pKi: −log10 of the molar value.

Legend:
[1] = molecular target: RAMP1 ECD-CTR ECD fusion protein (human) (UniProt O60894); assay: fluorescence polarisation
[2] = molecular target: RAMP3 ECD-CTR ECD fusion protein (human) (UniProt O60896); assay: fluorescence polarisation
[3] = molecular target: calcitonin receptor (CTR) extracellular domain (ECD) (human); assay: fluorescence polarisation
amylin receptor ECDs = assay: fluorescence polarisation
[4] = molecular target: full-length human calcitonin receptor C-terminally tagged with NanoLuc luciferase (human) (UniProt P30988)
Sequence of UniProt P30988 (P30988 25-474): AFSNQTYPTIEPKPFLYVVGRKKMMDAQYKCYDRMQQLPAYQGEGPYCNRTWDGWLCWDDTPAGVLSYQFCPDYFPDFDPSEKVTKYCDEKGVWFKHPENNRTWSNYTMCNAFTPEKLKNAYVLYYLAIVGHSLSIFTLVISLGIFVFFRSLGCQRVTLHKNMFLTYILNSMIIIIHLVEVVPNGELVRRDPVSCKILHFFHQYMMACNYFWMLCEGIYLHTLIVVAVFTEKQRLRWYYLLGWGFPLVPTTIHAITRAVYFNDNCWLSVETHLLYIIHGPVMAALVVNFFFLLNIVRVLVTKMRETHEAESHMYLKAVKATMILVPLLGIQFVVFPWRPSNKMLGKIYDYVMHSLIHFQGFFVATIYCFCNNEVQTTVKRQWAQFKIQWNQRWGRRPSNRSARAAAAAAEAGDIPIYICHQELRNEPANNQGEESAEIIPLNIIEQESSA

[5] = molecular target: RAMP2 ECD-CTR ECD fusion protein (human) (UniProt O60895); assay: fluorescence polarisation
Sequence of UniProt O60895 (O60895 whole entry, looked up, the tested form may be a part): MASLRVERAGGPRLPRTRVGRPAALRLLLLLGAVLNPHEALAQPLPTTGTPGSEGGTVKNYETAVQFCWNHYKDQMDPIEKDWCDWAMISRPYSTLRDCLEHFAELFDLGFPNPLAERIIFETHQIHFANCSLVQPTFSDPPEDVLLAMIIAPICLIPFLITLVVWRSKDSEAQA

Sequence of UniProt O60894 (O60894 whole entry, the tested form may be a part): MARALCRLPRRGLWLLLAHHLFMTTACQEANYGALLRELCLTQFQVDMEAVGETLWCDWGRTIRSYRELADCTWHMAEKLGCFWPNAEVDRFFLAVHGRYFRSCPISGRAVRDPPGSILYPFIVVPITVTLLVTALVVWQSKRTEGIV
Sequence of UniProt O60896 (O60896 whole entry, the tested form may be a part): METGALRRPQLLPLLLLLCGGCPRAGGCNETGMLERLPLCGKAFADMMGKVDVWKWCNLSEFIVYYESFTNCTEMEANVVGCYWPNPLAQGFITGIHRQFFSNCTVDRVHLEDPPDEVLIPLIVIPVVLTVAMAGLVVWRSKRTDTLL

rat amylin(27–37) L27Y/Y37P plus S34A (peptide)
fold increase in affinity over rat amylin(27–37) L27Y/Y37P [1]: 2.5 fold

rat amylin(27–37) with Y37HYP (hydroxyproline) mutation (peptide)
fold increase in affinity over rat amylin(27–37) Y37P [1]: 5 fold | fold increase in affinity over rat amylin(27–37) Y37P [2]: 3 fold

rat amylin(27–37) L27Y/Y37P plus S34HYP (hydroxyproline) (peptide)
fold decrease in affinity against the peptide with S34P [1]: 9 fold

rat amylin(27–37) L27Y/Y37P plus P29K (peptide)
fold increase in affinity over rat amylin(27–37) L27Y/Y37P [1]: 4 fold

FITC-labeled salmon calcitonin (sCT) fragment(22–32) (peptide)
pKd [3]: 6.30

rat amylin(27–37) L27W/Y37P (peptide)
fold increase in affinity over rat amylin(27–37) L27Y/Y37P [1]: 2 fold

rat amylin(27–37) with L27Y and Y37P double mutations (peptide)
pKi (amylin receptor ECDs): 4.96 to 5.40

rat amylin(27–37) L27Y/Y37P plus S34P (peptide)
fold increase in affinity over rat amylin(27–37) L27Y/Y37P [1]: 3.6 fold

pramlintide (peptide)
EC50 of receptor activation (mini-Gs recruitment BRET, HEK293T cells) [4]: 72 nM

FITC-labeled AC413(6–25) with Y25P mutation (peptide)
pKd [1]: 7.11 | pKd [5]: 7.17 | pKd [2]: 6.60

rat amylin(27–37) L27Y/Y37P plus P29R (peptide)
fold increase in affinity over rat amylin(27–37) L27Y/Y37P [1]: 4 fold
